B1: SP16 (peptide)
peptide: Ac-LGANDELISF[S5]DEG[S5]QEEKSSN-NH2
modifications: staple 11-15
SMILES: CC[C@H](C)[C@H](NC(=O)[C@H](CC(C)C)NC(=O)[C@H](CCC(=O)O)NC(=O)[C@H](CC(=O)O)NC(=O)[C@H](CC(N)=O)NC(=O)[C@H](C)NC(=O)CNC(=O)[C@H](CC(C)C)NC(C)=O)C(=O)N[C@@H](CO)C(=O)N[C@@H](Cc1ccccc1)C(=O)N[C@@]1(C)CCCC=CCCC[C@@](C)(C(=O)N[C@@H](CCC(N)=O)C(=O)N[C@@H](CCC(=O)O)C(=O)N[C@@H](CCC(=O)O)C(=O)N[C@@H](CCCCN)C(=O)N[C@@H](CO)C(=O)N[C@@H](CO)C(=O)N[C@@H](CC(N)=O)C(N)=O)NC(=O)CNC(=O)[C@H](CCC(=O)O)NC(=O)[C@H](CC(=O)O)NC1=O
B2: SP17 (peptide)
peptide: Ac-LGANDELISFK[S5]EGE[S5]EEKSSN-NH2
modifications: staple 12-16
SMILES: CC[C@H](C)[C@H](NC(=O)[C@H](CC(C)C)NC(=O)[C@H](CCC(=O)O)NC(=O)[C@H](CC(=O)O)NC(=O)[C@H](CC(N)=O)NC(=O)[C@H](C)NC(=O)CNC(=O)[C@H](CC(C)C)NC(C)=O)C(=O)N[C@@H](CO)C(=O)N[C@@H](Cc1ccccc1)C(=O)N[C@@H](CCCCN)C(=O)N[C@@]1(C)CCCC=CCCC[C@@](C)(C(=O)N[C@@H](CCC(=O)O)C(=O)N[C@@H](CCC(=O)O)C(=O)N[C@@H](CCCCN)C(=O)N[C@@H](CO)C(=O)N[C@@H](CO)C(=O)N[C@@H](CC(N)=O)C(N)=O)NC(=O)[C@H](CCC(=O)O)NC(=O)CNC(=O)[C@H](CCC(=O)O)NC1=O
B3: SP18 (peptide)
peptide: Ac-LGANDELISFKDEG[S5]QEE[S5]SSN-NH2
modifications: staple 15-19
SMILES: CC[C@H](C)[C@H](NC(=O)[C@H](CC(C)C)NC(=O)[C@H](CCC(=O)O)NC(=O)[C@H](CC(=O)O)NC(=O)[C@H](CC(N)=O)NC(=O)[C@H](C)NC(=O)CNC(=O)[C@H](CC(C)C)NC(C)=O)C(=O)N[C@@H](CO)C(=O)N[C@@H](Cc1ccccc1)C(=O)N[C@@H](CCCCN)C(=O)N[C@@H](CC(=O)O)C(=O)N[C@@H](CCC(=O)O)C(=O)NCC(=O)N[C@@]1(C)CCCC=CCCC[C@@](C)(C(=O)N[C@@H](CO)C(=O)N[C@@H](CO)C(=O)N[C@@H](CC(N)=O)C(N)=O)NC(=O)[C@H](CCC(=O)O)NC(=O)[C@H](CCC(=O)O)NC(=O)[C@H](CCC(N)=O)NC1=O
B4: SP60 (peptide)
peptide: Ac-LGANDELISF[S5]NQG[S5]QAAKSSNNSSA[S5]RNL[S5]AVKSSLV-NH2
modifications: staple 11-15, 27-31
SMILES: CC[C@H](C)[C@H](NC(=O)[C@H](CC(C)C)NC(=O)[C@H](CCC(=O)O)NC(=O)[C@H](CC(=O)O)NC(=O)[C@H](CC(N)=O)NC(=O)[C@H](C)NC(=O)CNC(=O)[C@H](CC(C)C)NC(C)=O)C(=O)N[C@@H](CO)C(=O)N[C@@H](Cc1ccccc1)C(=O)N[C@@]1(C)CCCC=CCCC[C@@](C)(C(=O)N[C@@H](CCC(N)=O)C(=O)N[C@@H](C)C(=O)N[C@@H](C)C(=O)N[C@@H](CCCCN)C(=O)N[C@@H](CO)C(=O)N[C@@H](CO)C(=O)N[C@@H](CC(N)=O)C(=O)N[C@@H](CC(N)=O)C(=O)N[C@@H](CO)C(=O)N[C@@H](CO)C(=O)N[C@@H](C)C(=O)N[C@@]2(C)CCCC=CCCC[C@@](C)(C(=O)N[C@@H](C)C(=O)N[C@H](C(=O)N[C@@H](CCCCN)C(=O)N[C@@H](CO)C(=O)N[C@@H](CO)C(=O)N[C@@H](CC(C)C)C(=O)N[C@H](C(N)=O)C(C)C)C(C)C)NC(=O)[C@H](CC(C)C)NC(=O)[C@H](CC(N)=O)NC(=O)[C@H](CCCNC(=N)N)NC2=O)NC(=O)CNC(=O)[C@H](CCC(N)=O)NC(=O)[C@H](CC(N)=O)NC1=O
B5: SP63 (peptide)
peptide: Ac-LGANDELISF[S5]NEG[S5]QAEKSSNNSSA[S5]RNL[S5]DVKSSLV-NH2
modifications: staple 11-15, 27-31
SMILES: CC[C@H](C)[C@H](NC(=O)[C@H](CC(C)C)NC(=O)[C@H](CCC(=O)O)NC(=O)[C@H](CC(=O)O)NC(=O)[C@H](CC(N)=O)NC(=O)[C@H](C)NC(=O)CNC(=O)[C@H](CC(C)C)NC(C)=O)C(=O)N[C@@H](CO)C(=O)N[C@@H](Cc1ccccc1)C(=O)N[C@@]1(C)CCCC=CCCC[C@@](C)(C(=O)N[C@@H](CCC(N)=O)C(=O)N[C@@H](C)C(=O)N[C@@H](CCC(=O)O)C(=O)N[C@@H](CCCCN)C(=O)N[C@@H](CO)C(=O)N[C@@H](CO)C(=O)N[C@@H](CC(N)=O)C(=O)N[C@@H](CC(N)=O)C(=O)N[C@@H](CO)C(=O)N[C@@H](CO)C(=O)N[C@@H](C)C(=O)N[C@@]2(C)CCCC=CCCC[C@@](C)(C(=O)N[C@@H](CC(=O)O)C(=O)N[C@H](C(=O)N[C@@H](CCCCN)C(=O)N[C@@H](CO)C(=O)N[C@@H](CO)C(=O)N[C@@H](CC(C)C)C(=O)N[C@H](C(N)=O)C(C)C)C(C)C)NC(=O)[C@H](CC(C)C)NC(=O)[C@H](CC(N)=O)NC(=O)[C@H](CCCNC(=N)N)NC2=O)NC(=O)CNC(=O)[C@H](CCC(=O)O)NC(=O)[C@H](CC(N)=O)NC1=O
B6: SP64 (peptide)
peptide: LGANDELISFANEGAQEEKSSNNSSAARNLADVKSSLV
modifications: not fully specified; N-terminal acetyl; C-terminal amide; $ = (S)-alpha-(2'-pentenyl)alanine at positions 11 and 15 (first crosslink) and 27 and 31 (second crosslink), each pair joined by an all-carbon crosslinker with one double bond
B7: SP62 (peptide)
peptide: LGANDELISFANEGAQEEKSSNNSSAARDLADVKSSLV
modifications: not fully specified; N-terminal acetyl; C-terminal amide; $ = (S)-alpha-(2'-pentenyl)alanine at positions 11 and 15 (first crosslink) and 27 and 31 (second crosslink), each pair joined by an all-carbon crosslinker with one double bond
B8: SP61 (peptide)
peptide: Ac-LGANDELISW[S5]DEG[S5]QQEKSSENSSA[S5]RDL[S5]NVKSSLV-NH2
modifications: staple 11-15, 27-31
SMILES: CC[C@H](C)[C@H](NC(=O)[C@H](CC(C)C)NC(=O)[C@H](CCC(=O)O)NC(=O)[C@H](CC(=O)O)NC(=O)[C@H](CC(N)=O)NC(=O)[C@H](C)NC(=O)CNC(=O)[C@H](CC(C)C)NC(C)=O)C(=O)N[C@@H](CO)C(=O)N[C@@H](Cc1c[nH]c2ccccc12)C(=O)N[C@@]1(C)CCCC=CCCC[C@@](C)(C(=O)N[C@@H](CCC(N)=O)C(=O)N[C@@H](CCC(N)=O)C(=O)N[C@@H](CCC(=O)O)C(=O)N[C@@H](CCCCN)C(=O)N[C@@H](CO)C(=O)N[C@@H](CO)C(=O)N[C@@H](CCC(=O)O)C(=O)N[C@@H](CC(N)=O)C(=O)N[C@@H](CO)C(=O)N[C@@H](CO)C(=O)N[C@@H](C)C(=O)N[C@@]2(C)CCCC=CCCC[C@@](C)(C(=O)N[C@@H](CC(N)=O)C(=O)N[C@H](C(=O)N[C@@H](CCCCN)C(=O)N[C@@H](CO)C(=O)N[C@@H](CO)C(=O)N[C@@H](CC(C)C)C(=O)N[C@H](C(N)=O)C(C)C)C(C)C)NC(=O)[C@H](CC(C)C)NC(=O)[C@H](CC(=O)O)NC(=O)[C@H](CCCNC(=N)N)NC2=O)NC(=O)CNC(=O)[C@H](CCC(=O)O)NC(=O)[C@H](CC(=O)O)NC1=O

Bridges are numbered along the chain shown (N, C = ends). [ ]: non-standard residue; d: D form. S5 = C=CCCC[C@](C)(N)C(=O)O

For the experiment, the target named is T1, C-terminally 6x Histidine-tagged Beta-Catenin (aa 134-668, 59 KD) (UniProt P35222 134-668).
T1 construct: range 134-668; Armadillo repeat region
T1 sequence: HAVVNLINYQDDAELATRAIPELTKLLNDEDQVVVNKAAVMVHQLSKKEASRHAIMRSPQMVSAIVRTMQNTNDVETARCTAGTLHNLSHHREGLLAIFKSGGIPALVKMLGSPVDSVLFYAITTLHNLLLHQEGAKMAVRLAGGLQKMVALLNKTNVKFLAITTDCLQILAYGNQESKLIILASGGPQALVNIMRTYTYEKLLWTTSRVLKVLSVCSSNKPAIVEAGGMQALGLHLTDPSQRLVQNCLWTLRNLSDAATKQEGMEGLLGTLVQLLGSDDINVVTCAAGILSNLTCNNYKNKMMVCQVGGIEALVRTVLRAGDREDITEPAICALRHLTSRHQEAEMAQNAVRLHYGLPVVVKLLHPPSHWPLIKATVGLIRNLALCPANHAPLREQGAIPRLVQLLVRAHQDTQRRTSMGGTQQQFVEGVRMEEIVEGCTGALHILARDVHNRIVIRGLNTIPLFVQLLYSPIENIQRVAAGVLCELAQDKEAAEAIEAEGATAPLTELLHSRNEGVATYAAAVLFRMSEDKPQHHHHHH
The experiment in a line: competitive fluorescence polarization, FAM-labelled linear probe as competitor, His-tagged beta-catenin 134-668. A digest of the protocol: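 FP competition in 25 mM Tris-HCl pH 7.5, 200 mM NaCl, 5 mM CHAPS, 2 mM DTT at room temperature. Competitor peptides at 40–0.7 μM 2× working range, constant DMSO. Probe (benchmark peptide with N-terminal FAM via β-Ala spacer) from 25 nM 10× stock. Read after 3 h in the dark, ex 485/em 528 nm.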
For the molecule Ac-LGANDELISFKDEGEQEEKSS-NH2 (Linear, not crosslinked) [SP15], the IC50 turned out to be 6.08 µM.

B1: the IC50 was not below 100 µM.

With B2, the half-inhibitory concentration (IC50) was 52.9 µM.

With B3, the IC50 stood at 60.1 µM.

Consider B4, for which the IC50 was not below 100 µM.

For the molecule B5, the IC50 turned out to be 1.19 µM.

With B6, the IC50 amounted to 0.541 µM.

Take B7: the IC50 worked out at 0.07 µM.

With B8, the IC50 came to 1 µM.

Values taken from patent publication US20170266254A1 (AILERON THERAPEUTICS, published 2017).
